Reference: patent US20250313635A1 (Merck Sharp & Dohme, published 2025)

What was measured:
[1] = target: T1, human αvβ6 integrin on CHOK1 stable cells (human, UniProt P06756 31-1048; P18564 22-788); assay: cell-based ELISA (CELISA), CHOK1 cells expressing the integrin
T1 construct: whole, on cells; Stably expressed on CHOK1 cells; also called hαvβ6; CHOK1-human αvβ6
Procedure: Integrin cell-based ELISA (CELISA) assay. Cell binding EC₅₀ data for antibodies were obtained for CHOK1 parental cells and CHOK1 cells expressing human or mouse αvβ1, αvβ6, and αvβ1 integrins by cell-based ELISA. Three days prior to the assay cells were seeded at 10,000 cells per well in 100 μL/well of media in Falcon 96-well Flat-Bottom Tissue Culture Plates (REF 353916), resulting in an even cell monolayer in each well on the day of the assay. On the day of the assay, media was removed from the cells and a fivefold titration of primary antibodies was added at concentrations ranging from 0 to 200 nM in TBSF+MnCl₂ buffer (25 mM Tris, 0.15 M NaCl, 0.1% BSA, 0.5 mM MnCl₂, pH 7.5). Cells incubated with primary antibody solution for 1 hour at room temperature. […] After 30 minutes of incubation at room temperature, secondary antibody was removed, and cells were washed twice with 150 μL/well of 1×DPBS+Tween 20. Then 50 μL/well of TMB substrate (1-Step Ultra TMB-ELISA, Thermo Scientific, #34028) was added, incubated with cells at room temperature, and 50 μL/well of TMB stop solution (Seracare, #KPL 50-85-05) was then added after five minutes. Absorbance was read on a TECAN plate reader at 450 nm, with a 620 nm reference wavelength.

[2] = target: T2, recombinant mouse αvβ1 integrin extracellular domains (mouse, UniProt P43406 1-988; P09055 1-728, Biotinylated on the Avitag (tag not in the letters); interchain disulfide between the coiled-coils (not in the letters).); assay: AlphaLISA blocking of mouse fibronectin binding
T2 construct: Soluble heterodimer co-expressed in Expi293 cells; also called mαvβ1
Procedure: (§1) Briefly, the testing antibody (8 μL) was added as a 4×(of Final testing concentration) solution in the HEPES buffer described previously into a 384w AlphaPlate™ (Perkin Elmer #6005350). Then the integrin and ligand were added sequentially as 8×(4 μL each). Plates were sealed and incubated at room temperature for two hours. Then 4×acceptor bead solution ([…]) was added, and the plates were resealed and incubated at room temperature (RT) for one hour. Finally, 4×([…]) donor beads solution was added in a darkened room and incubated for 45 minutes at room temperature. Plates were read on the Envision (Perkin Elmer) in AlphaScreen™ mode within three hours of donor bead addition.

[3] = target: T3, recombinant human α5β1 integrin extracellular domains (human, UniProt P08648 1-995; P05556 1-728, Biotinylated on the Avitag (tag not in the letters); interchain disulfide between the coiled-coils (not in the letters).); assay: AlphaLISA blocking of human fibronectin binding
T3 construct: Soluble heterodimer co-expressed in Expi293 cells; also called hα5β1

[4] = target: T4, recombinant human αvβ1 integrin extracellular domains (human, UniProt P06756 1-992; P05556 1-728, Secreted glycoprotein heterodimer. It is biotinylated on the omitted Avitag, and an interchain disulfide sits in the omitted coiled-coils.); assay: AlphaLISA blocking of human fibronectin binding
T4 construct: Soluble heterodimer co-expressed in Expi293 cells; also called hαvβ1; not shown: Alpha chain: acidic coiled-coil with cysteine and GG-Avitag; Beta chain: basic coiled-coil with cysteine and GG-Avitag

[5] = target: T5, recombinant human αvβ6 integrin extracellular domains (human, UniProt P06756 1-992; P18564 1-709, Biotinylated on the Avitag (tag not in the letters); interchain disulfide between the coiled-coils (not in the letters).); assay: AlphaLISA blocking of human LAP binding
T5 construct: Soluble heterodimer co-expressed in Expi293 cells; also called hαvβ6

[6] = target: T6, recombinant human αvβ8 integrin extracellular domains (human, UniProt P06756 1-992; P26012 1-684, Biotinylated on the Avitag (tag not in the letters); interchain disulfide between the coiled-coils (not in the letters).); assay: AlphaLISA blocking of human LAP binding
T6 construct: Soluble heterodimer co-expressed in Expi293 cells; also called hαvβ8

[7] = target: T4, recombinant human αvβ1 integrin …; assay: ForteBio Octet Red (BLI)
[8] = target: T2, recombinant mouse αvβ1 integrin …; assay: ForteBio Octet Red (BLI)
[9] = target: T7, recombinant human αvβ3 integrin extracellular domains (human, UniProt P06756 1-992; P05106 1-718, Secreted glycoprotein heterodimer. It is biotinylated on the omitted Avitag, and an interchain disulfide sits in the omitted coiled-coils.); assay: ForteBio Octet Red (BLI)
T7 construct: Soluble heterodimer co-expressed in Expi293 cells; also called hαvβ3; not shown: Alpha chain: acidic coiled-coil with cysteine and GG-Avitag; Beta chain: basic coiled-coil with cysteine and GG-Avitag

[10] = target: T8, recombinant mouse αvβ6 integrin extracellular domains (mouse, UniProt P43406 1-988; Q9Z0T9 1-706, Biotinylated on the Avitag (tag not in the letters); interchain disulfide between the coiled-coils (not in the letters).); assay: ForteBio Octet Red (BLI)
T8 construct: Soluble heterodimer co-expressed in Expi293 cells; also called mαvβ6

[11] = target: T9, recombinant human αvβ5 integrin extracellular domains (human, UniProt P06756 1-992; P18084 1-719, Secreted glycoprotein heterodimer. It is biotinylated on the omitted Avitag, and an interchain disulfide sits in the omitted coiled-coils.); assay: AlphaLISA blocking of human vitronectin-GST binding
T9 construct: Soluble heterodimer co-expressed in Expi293 cells; also called hαvβ5; not shown: Alpha chain: acidic coiled-coil with cysteine and GG-Avitag; Beta chain: basic coiled-coil with cysteine and GG-Avitag

[12] = target: T7, recombinant human αvβ3 integrin …; assay: as above
[13] = target: T10, recombinant mouse αvβ3 integrin extracellular domains (mouse, UniProt P43406 1-988; O54890 1-717, Biotinylated on the Avitag (tag not in the letters); interchain disulfide between the coiled-coils (not in the letters).); assay: AlphaLISA blocking of mouse vitronectin binding
T10 construct: Soluble heterodimer co-expressed in Expi293 cells; also called mαvβ3
Procedure: as §1

T8 sequence (P43406 31-988 limits assumed, form in doubt, chain 1 of 2): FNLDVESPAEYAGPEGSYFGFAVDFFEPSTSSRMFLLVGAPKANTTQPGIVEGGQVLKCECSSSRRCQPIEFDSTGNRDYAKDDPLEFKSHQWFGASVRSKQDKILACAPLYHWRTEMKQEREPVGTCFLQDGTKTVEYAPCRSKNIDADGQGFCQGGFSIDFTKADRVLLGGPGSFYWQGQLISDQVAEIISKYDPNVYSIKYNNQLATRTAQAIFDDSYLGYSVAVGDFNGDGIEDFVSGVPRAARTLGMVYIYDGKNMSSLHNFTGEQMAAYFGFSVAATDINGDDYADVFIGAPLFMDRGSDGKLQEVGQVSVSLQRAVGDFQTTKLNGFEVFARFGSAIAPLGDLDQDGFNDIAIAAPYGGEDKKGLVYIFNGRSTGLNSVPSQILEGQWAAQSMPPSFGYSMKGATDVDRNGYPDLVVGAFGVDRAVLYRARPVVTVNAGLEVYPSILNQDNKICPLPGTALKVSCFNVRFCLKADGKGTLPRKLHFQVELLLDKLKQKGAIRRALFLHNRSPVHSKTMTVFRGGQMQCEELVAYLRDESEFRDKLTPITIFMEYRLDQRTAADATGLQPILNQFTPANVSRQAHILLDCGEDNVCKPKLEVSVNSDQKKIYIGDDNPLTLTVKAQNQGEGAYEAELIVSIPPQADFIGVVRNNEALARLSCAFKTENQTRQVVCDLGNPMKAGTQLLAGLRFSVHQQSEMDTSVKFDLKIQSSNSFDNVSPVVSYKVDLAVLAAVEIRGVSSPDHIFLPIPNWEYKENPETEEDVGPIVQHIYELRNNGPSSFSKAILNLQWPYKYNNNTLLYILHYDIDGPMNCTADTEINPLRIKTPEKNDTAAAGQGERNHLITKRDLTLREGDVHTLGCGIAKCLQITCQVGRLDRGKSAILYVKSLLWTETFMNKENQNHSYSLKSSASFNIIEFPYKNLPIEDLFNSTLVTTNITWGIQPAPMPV
T8 sequence (Q9Z0T9 22-706 limits assumed, form in doubt, chain 2 of 2): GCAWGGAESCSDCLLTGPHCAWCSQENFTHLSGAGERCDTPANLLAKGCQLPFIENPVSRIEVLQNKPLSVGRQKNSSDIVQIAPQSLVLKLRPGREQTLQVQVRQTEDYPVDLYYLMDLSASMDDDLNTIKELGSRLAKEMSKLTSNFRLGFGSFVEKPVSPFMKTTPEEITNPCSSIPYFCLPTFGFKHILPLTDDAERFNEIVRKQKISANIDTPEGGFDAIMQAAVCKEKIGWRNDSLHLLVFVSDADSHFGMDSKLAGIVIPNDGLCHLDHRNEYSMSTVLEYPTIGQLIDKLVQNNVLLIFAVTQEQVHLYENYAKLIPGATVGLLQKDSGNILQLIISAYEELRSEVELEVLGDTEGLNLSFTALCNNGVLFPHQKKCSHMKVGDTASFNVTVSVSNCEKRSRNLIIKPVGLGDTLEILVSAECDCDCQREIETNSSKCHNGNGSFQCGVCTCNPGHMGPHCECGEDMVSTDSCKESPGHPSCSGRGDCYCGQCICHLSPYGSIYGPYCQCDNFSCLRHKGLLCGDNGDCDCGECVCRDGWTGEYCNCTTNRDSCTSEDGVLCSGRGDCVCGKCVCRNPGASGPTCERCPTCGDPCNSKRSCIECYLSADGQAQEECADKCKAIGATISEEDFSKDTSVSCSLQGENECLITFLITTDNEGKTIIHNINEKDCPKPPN
T10 sequence (P43406 31-988 limits assumed, form in doubt, chain 1 of 2): as the sequence (P43406 31-988 limits assumed, form in doubt, chain 1 of 2) above
T10 sequence (O54890 26-717 limits assumed, form in doubt, chain 2 of 2): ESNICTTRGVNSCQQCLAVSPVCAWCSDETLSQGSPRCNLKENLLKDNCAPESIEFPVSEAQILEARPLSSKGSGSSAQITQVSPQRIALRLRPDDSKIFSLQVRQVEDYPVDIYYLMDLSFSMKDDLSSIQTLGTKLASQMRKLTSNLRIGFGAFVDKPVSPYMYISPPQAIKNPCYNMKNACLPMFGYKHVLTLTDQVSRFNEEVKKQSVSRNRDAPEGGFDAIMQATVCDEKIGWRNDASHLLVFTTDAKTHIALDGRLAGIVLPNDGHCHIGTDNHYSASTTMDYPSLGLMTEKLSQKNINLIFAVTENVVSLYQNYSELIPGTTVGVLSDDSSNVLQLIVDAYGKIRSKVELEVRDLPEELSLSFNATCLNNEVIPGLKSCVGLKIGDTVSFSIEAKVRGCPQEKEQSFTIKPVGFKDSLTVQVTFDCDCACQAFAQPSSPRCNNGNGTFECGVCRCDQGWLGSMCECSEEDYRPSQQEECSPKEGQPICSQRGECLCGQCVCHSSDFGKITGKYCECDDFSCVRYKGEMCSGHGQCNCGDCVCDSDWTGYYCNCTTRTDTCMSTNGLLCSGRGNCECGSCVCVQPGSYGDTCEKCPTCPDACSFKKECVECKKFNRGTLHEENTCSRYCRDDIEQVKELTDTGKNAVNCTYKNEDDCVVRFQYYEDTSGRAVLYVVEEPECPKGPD
T2 sequence (P43406 31-988 limits assumed, form in doubt, chain 1 of 2): as the sequence (P43406 31-988 limits assumed, form in doubt, chain 1 of 2) above
T2 sequence (P09055 21-728 limits assumed, form in doubt, chain 2 of 2): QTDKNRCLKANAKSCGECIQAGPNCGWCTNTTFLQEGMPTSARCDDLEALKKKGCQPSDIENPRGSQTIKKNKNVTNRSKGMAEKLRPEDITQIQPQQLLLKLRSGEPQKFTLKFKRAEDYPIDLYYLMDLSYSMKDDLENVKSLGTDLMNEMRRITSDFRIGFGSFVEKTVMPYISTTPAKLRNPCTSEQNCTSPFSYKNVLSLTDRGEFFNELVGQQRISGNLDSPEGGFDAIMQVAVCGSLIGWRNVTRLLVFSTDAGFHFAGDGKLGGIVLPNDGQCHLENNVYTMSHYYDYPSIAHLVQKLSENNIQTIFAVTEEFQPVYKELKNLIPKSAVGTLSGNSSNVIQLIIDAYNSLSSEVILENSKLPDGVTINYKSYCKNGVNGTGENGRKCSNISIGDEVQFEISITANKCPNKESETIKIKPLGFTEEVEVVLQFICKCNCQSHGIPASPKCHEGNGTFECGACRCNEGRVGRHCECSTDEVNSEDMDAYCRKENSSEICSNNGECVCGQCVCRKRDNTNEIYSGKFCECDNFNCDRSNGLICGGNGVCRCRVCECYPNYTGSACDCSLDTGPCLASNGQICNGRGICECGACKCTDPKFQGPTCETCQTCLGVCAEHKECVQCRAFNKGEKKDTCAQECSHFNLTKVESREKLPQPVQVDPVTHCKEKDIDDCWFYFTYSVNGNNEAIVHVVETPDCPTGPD

Row | Binder | EC50 [1] | IC50 [2] | IC50 [3] | IC50 [4] | IC50 [5] | IC50 [6] | Kd [7] | Kd [8] | Kd [9] | Kd [10] | IC50 [11] | IC50 [12] | IC50 [13]
1 | Ab-29 (antibody, V domains shown) VH: ELQLQESGPGLVKPSETLSLTCTVSGGSISSNSYYWGWIRQPPGKGLEWIGSIYYSGSTYYNPSLKSRVTISVDTSKNQFSLKLSSVTAADTAVYYCARVRRVAGRGDSYYYYYGMDVWGQGTTVTVSS VL: DIQMTQSPSSVSASVGDRVTITCRASQGISRWLAWYQQKPGKAPKLLIYAASSLQSGVPSRFSGSGSGTDFTLTISSLQPEDFATYYCQQAISHPWTFGGGTKVEIK | 0.861 nM | 3.4 nM | 9.46 nM | 2.57 nM | 96 nM | 200 nM | 2.7 nM | 4.21 nM | 6.58 nM | 4.11 nM | 14.8 nM | 1.16 nM | 3.4 nM
2 | Ab-31 (antibody, V domains shown) VH: EVQLQESGPGLVKPSETLSLTCAVSGYSISSGYYWGWIRQPPGKGLEWIGSIYHSGNTYYNPSLKSRVTISVDTSKNQFSLKLSSVTAADTAVYYCARVPRYSRGDAYYYYGMDVWGQGTTVTVSS VL: DIQMTQSPSTLSASVGDRVTITCRASQSIGSWLAWYQQKPGKAPKLLIYKASSLESGVPSRFSGSGSGTEFTLTISSLQPDDFATYYCQQSGPYPWTFGGGTKVEIK | 0.483 nM | 6.6 nM | 47.3 nM | 2.26 nM | 30.9 nM | 47.8 nM | 14 nM | 48.4 nM | 6.47 nM | 2.9 nM | 31.7 nM | 0.94 nM | 3.2 nM

Binders with a lower EC50 [1], results first:

Row | EC50 [1] | IC50 [2] | IC50 [3] | IC50 [4] | IC50 [5] | IC50 [6] | Kd [7] | Kd [8] | Kd [9] | Kd [10] | IC50 [11] | IC50 [12] | IC50 [13] | Binder
3 | 0.417 nM | 4.5 nM | 31.1 nM | 1.27 nM | 7.49 nM | 12.2 nM | 12.7 nM | 37.7 nM | 5.07 nM | 2.45 nM | 22.3 nM | 1.28 nM | 9.2 nM | Ab-33 (antibody, V domains shown) VH: EVQLVQSGAEVKKPGSSVKVSCKASGGTFSNYAISWVRQAPGQGLEWMGGIIPIFGTANYAQKFQGRVTITADESTSTAYMELSSLRSEDTAVYYCARAPRSARGDMYYYYYGMDVWGQGTTVTVSS VL: DIQMTQSPSTLSASVGDRVTITCRASQSIGSWLAWYQQKPGKAPKLLIYKASSLESGVPSRFSGSGSGTEFTLTISSLQPDDFATYYCQQYGRYPWTFGGGTKVEIK
4 | 0.438 nM | 6.7 nM | 34.1 nM | 2.41 nM | 16.4 nM | 48 nM | 7.4 nM | 25.9 nM | 6.14 nM | 2.59 nM | 26 nM | 1.03 nM | 4.3 nM | Ab-32 (antibody, V domains shown) VH: EVQLQESGPGLVKPSETLSLTCAVSGYSISSGYYWGWIRQPPGKGLEWIGSIYHSGNTYYNPSLKSRVTISVDTSKNQFSLKLSSVTAADTAVYYCARVPRYSRGDAYYYYGMDVWGQGTTVTVSS VL: EIVLTQSPGTLSLSPGERATLSCRASQSVRSSYLAWYQQKPGQAPRLLIYGASSRATGIPDRFSGSGSGTDFTLTISRLEPEDFAVYYCQQAGLVFTFGGGTKVEIK
5 | 0.323 nM | 6.8 nM | 43.1 nM | 3.15 nM | 25.4 nM | 19.7 nM | 6.75 nM | 35 nM | 5.29 nM | 3.03 nM | 53.5 nM | 1.24 nM | 4.2 nM | Ab-30 (antibody, V domains shown) VH: EVQLQESGPGLVKPSETLSLTCAVSGYSISSGYYWGWIRQPPGKGLEWIGSIYHSGNTYYNPSLKSRVTISVDTSKNQFSLKLSSVTAADTAVYYCARVPRYSRGDAYYYYGMDVWGQGTTVTVSS VL: DIQMTQSPSTLSASVGDRVTITCRASQSISSWLAWYQQKPGKAPKLLIYKASSLESGVPSRFSGSGSGTEFTLTISSLQPDDFATYYCQQVKIYPPYTFGGGTKVEIK
